{"source": "patent US7879792", "key": {"human γ-thrombin (human)": {"target": "human γ-thrombin (human) (UniProt P00734)", "test": "inhibition of γ-thrombin hydrolysis of Sar-Pro-Arg-paranitroanilide; Ki from Ki,app by the procedure of Bieth"}, "human α-thrombin (human) [1]": {"target": "human α-thrombin (human) (UniProt P00734)", "test": "inhibition of α-thrombin hydrolysis of Sar-Pro-Arg-paranitroanilide; Ki from Ki,app by the procedure of Bieth"}, "human α-thrombin (human) [2]": {"target": "human α-thrombin (human) (UniProt P00734)", "test": "cell-based or functional assay"}, "[3]": {"target": "recombinant extracellular domain of human PAR4 (rPAR4EC), Gly18-Arg78 (human) (UniProt Q96RI0)", "test": "displacement of 15 µM RPPGFK-biotin from plate-bound rPAR4EC; peptide at 30 µM"}, "[4]": {"target": "recombinant extracellular domain of human PAR4 (rPAR4EC), Gly18-Arg78 (human) (UniProt Q96RI0)", "test": "displacement of 15 µM RPPGFK-biotin from plate-bound rPAR4EC; peptide at 1000 µM"}, "[5]": {"target": "recombinant extracellular domain of human PAR4 (rPAR4EC), Gly18-Arg78 (human) (UniProt Q96RI0)", "test": "displacement of 15 µM RPPGFK-biotin from plate-bound rPAR4EC; peptide at 300 µM"}}, "data": [{"substance": "rOicPaF(p-Br) (D-Arg-Oic-Pro-D-Ala-Phe(p-Br)) (peptide)", "values": [{"measurement": "Ki", "setting": "human γ-thrombin (human)", "result": 48.7, "unit": "µM"}]}, {"substance": "rOicPsF(p-Me) (D-Arg-Oic-Pro-D-Ser-Phe(p-Me)) (peptide)", "values": [{"measurement": "Ki", "setting": "human γ-thrombin (human)", "result": 42.2, "unit": "µM"}]}, {"substance": "rOicPaF(p-NO2) (D-Arg-Oic-Pro-D-Ala-Phe(p-NO2)) (peptide)", "values": [{"measurement": "Ki", "setting": "human α-thrombin (human) [1]", "result": 10.6, "unit": "µM"}, {"measurement": "peptide concentration giving significant prolongation (p<0.05) of the APTT of normal human plasma", "setting": "human α-thrombin (human) [2]", "result": 50, "unit": "µM"}, {"measurement": "peptide concentration giving significant prolongation (p<0.05) of the PT of normal human plasma", "setting": "human α-thrombin (human) [2]", "result": 6.25, "unit": "µM"}, {"measurement": "peptide concentration giving significant prolongation (p<0.05) of the TCT of normal human plasma", "setting": "human α-thrombin (human) [2]", "result": 1.56, "unit": "µM"}, {"measurement": "Ki", "setting": "human γ-thrombin (human)", "result": 87.9, "unit": "µM"}]}, {"substance": "rOicPaF(p-Me) (D-Arg-Oic-Pro-D-Ala-Phe(p-Me)) (peptide)", "values": [{"measurement": "% of RPPGFK-biotin displaced", "setting": "[3]", "result": 19, "unit": "%"}, {"measurement": "% of RPPGFK-biotin displaced", "setting": "[4]", "result": 63, "unit": "%"}, {"measurement": "% of RPPGFK-biotin displaced", "setting": "[5]", "result": 49, "unit": "%"}, {"measurement": "Ki", "setting": "human γ-thrombin (human)", "result": 54.3, "unit": "µM"}]}, {"substance": "rOicPaF(p-I) (D-Arg-Oic-Pro-D-Ala-Phe(p-I)) (peptide)", "values": [{"measurement": "Ki", "setting": "human γ-thrombin (human)", "result": 59.2, "unit": "µM"}]}]}
